The supplement of paper PMC9732359
± gives the uncertainty stated by the source.

experiment: protein stability index of a GFP-peptide fusion (yeast GPS) (PSI 1-4); higher = more stable; sorted into four equal gates, so the index is relative within each strain; details: doa10∆
Method in brief: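 Peptides tiling yeast proteins in 17-residue segments were fused downstream of GFP, with Cherry expressed from the same plasmid. As a pooled library in yeast, mid-log cultures grown in leucine-free medium were sorted into four equal gates by GFP/Cherry fluorescence ratio. Gate plasmids were PCR-amplified and Illumina-sequenced, and barcodes linked reads to strains. Each peptide received a protein stability index equal to the sum of each gate's read frequency times its gate number.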

Compared with AGKWSSKYLIKQIDIPN [ECM29], AGTEANAVSFDTTFSDF [SRB4] is higher in protein stability index: 1.55 ± 0.068 for the first, 3.03 ± 0.042 for the second.

Going from AGTQSSKFSKQQAKGAF [RPL24A] to AGTTDNSFIKANLPWLG [RPN2], the protein stability index falls from 3.2 ± 0.063 to 1.48 ± 0.1.

First: AGVNNDNTKESKDVKMN [RTT102]
Second: AGYTTHLMKRIQKGPVR [RPS17A]
The protein stability index of the first is higher: 3.1 ± 0.25 for the first, 2.2 ± 0.11 for the second.

First: AHFLSLSFTPTTVIGIR [RPN2]
Second: AHVFVGTCNGDITTSIM [RPN1]
The protein stability index of the first is lower: 1.57 ± 0.043 for the first, 2.72 ± 0.048 for the second.

First: AIACYSGYNQEDSMIMN [RPB2]
Second: AIANTLLYLRLKNIYVS [PRP8]
The protein stability index of the first is higher: 2.65 ± 0.084 for the first, 1.38 ± 0.048 for the second.

Compared with AICRYANVIKALAFCEI [RRP4], AIIGLKSGTSHDAIFSI [SNF12] is higher in protein stability index: 1.42 ± 0.069 for the first, 2.56 ± 0.11 for the second.

AINIMNRSNDALIKFME [FAS2] and AIPLQQVLSQSADPSLL [SWI1] are within error of each other in protein stability index: 3.19 ± 0.15 for the first, 2.86 ± 0.22 for the second.

Going from AIPSRMTVAHLIECLLS [RPB2] to AIRRDARYNWICDPVHK [RPL15A], the protein stability index rises from 1.39 ± 0.098 to 2.71 ± 0.1.

Going from AIRRDARYNWICNPVHK [RPL15B] to AISGKKTTYYYYNEEGI [RPC82], the protein stability index falls from 3.03 ± 0.16 to 2.61 ± 0.067.

First: AISTDKINPFGFEQVKI [RRI2]
Second: AITISNSIDINYKGLPK [SMC1]
The protein stability index of the first is higher: 2.75 ± 0.056 for the first, 2.48 ± 0.063 for the second.

First: AKGCEVVVSGKLRAARA [RPS3]
Second: AKGLVAYHQKYVDEQSK [RPS16A]
The protein stability index of the first is higher: 3.15 ± 0.14 for the first, 2.03 ± 0.085 for the second.

Compared with AKHAVSEGTRAVTKYSS [HTB1], AKIYPGRGTLFVRGDSK [RPL24A] is lower in protein stability index: 3 ± 0.08 for the first, 1.1 ± 0.075 for the second.

AKKTSTSTDGKKRSKAR [HTB1] and AKNEDDPAHSLNYTVIN [AAR2] are within error of each other in protein stability index: 3.2 ± 0.25 for the first, 2.93 ± 0.2 for the second.

Compared with AKQALDLYHFALNYENE [SNF2], AKSISTSAKEPSENDVF [RPO31] is higher in protein stability index: 2.47 ± 0.098 for the first, 2.99 ± 0.072 for the second.

Going from AKSMAFLKEVLSDLSSP [YML103C/NUP188] to AKSTVETFISSMTATAD [RIP1], the protein stability index falls from 2.97 ± 0.079 to 1.89 ± 0.073.

AKVNRPAKIVNFEKPKN [RPN5] and AKWAPTLRTISFKGSPN [SNF2] are within error of each other in protein stability index: 2.93 ± 0.069 for the first, 3.02 ± 0.16 for the second.

First: ALALYVDAYRRLENKLS [SRP68]
Second: ALASIQTFNFDSFENYF [RPN12]
The protein stability index of the first is lower: 1.78 ± 0.2 for the first, 2.65 ± 0.048 for the second.

ALDTVTNVLNFIKLQKI [FAS1] and ALEEAKLSDNISICMIL [YDL116W/NUP84] are within error of each other in protein stability index: 2.76 ± 0.069 for the first, 2.87 ± 0.076 for the second.

First: ALEFVSLLLSSVKESTG [SRB4]
Second: ALEYIGAKVKTMRRQKL [RET1]
The protein stability index of the first is lower: 1.26 ± 0.046 for the first, 2.1 ± 0.069 for the second.

Compared with ALIDAGISMFDYISGIS [SKI6], ALIDTEFANFELKDICS [YML103C/NUP188] is higher in protein stability index: 1.48 ± 0.064 for the first, 2.12 ± 0.063 for the second.

Going from ALIENWAADSVSSRVRG [FAS1] to ALPNIENDIIKLSDSKT [BRR2], the protein stability index falls from 3.45 ± 0.12 to 2.79 ± 0.054.

Going from ALQNLSQLPITPMTRIS [YGL172W/NUP49] to ALRGMFKDRFKDEPVQN [FAS2], the protein stability index rises from 2.31 ± 0.13 to 3.56 ± 0.087.

Compared with ALSLHREILCYSKDAKE [FAS2], ALSQSSLLKTKLKQQSS [RRI1] is higher in protein stability index: 1.78 ± 0.028 for the first, 2.13 ± 0.037 for the second.

ALTKFEASQVTEKQRKK [RPL35A] and ALYIAMMTRRVVMAMYN [RET1] are within error of each other in protein stability index: 3.2 ± 0.27 for the first, 3.11 ± 0.28 for the second.

First: AMFFGNYGSSLQWHAMI [AAR2]
Second: AMICEAKGLIENIFEGE [YJR042W/NUP85]
The protein stability index of the first is lower: 2.41 ± 0.093 for the first, 2.94 ± 0.13 for the second.

Compared with AMLINLILRDFLNNGEV [RPN3], AMSLYHSPFPFNRTKGK [PRP8] is lower in protein stability index: 2.67 ± 0.086 for the first, 2.11 ± 0.04 for the second.

Going from ANATAAESDVAKQLAAL [RPL16A] to ANGIINVKEITEKLKIS [SMC3], the protein stability index falls from 3 ± 0.043 to 2.81 ± 0.12.

Going from ANLEDIIFEIEKPLVVP [RRP6] to ANLPANSSTSPAPSIPS [YLR335W/NUP2], the protein stability index rises from 2 ± 0.085 to 2.94 ± 0.037.

Going from ANLPWLGKAQNWAKFTA [RPN2] to ANMATVPSTTNVNMTVN [MED6], the protein stability index falls from 3.34 ± 0.085 to 2.92 ± 0.099.

ANNIVNIVSDAGANDTS [GRR1] and ANRDDVKGRENELLLPS [RPC82] are within error of each other in protein stability index: 3.2 ± 0.12 for the first, 3.37 ± 0.14 for the second.

ANRSRFNNEAPPQTRKF [SMB1] and APGASVPATAAPGTEAG [SWI1] are within error of each other in protein stability index: 3.05 ± 0.083 for the first, 2.99 ± 0.094 for the second.

Going from APGTEAGIVPVSANTPK [SWI1] to APIPKQLLQRIPNIPPN [GAL11], the protein stability index falls from 3.06 ± 0.053 to 2.69 ± 0.063.

First: APKWYPSEDVAAPKKTR [RPL6B]
Second: APLAKVVFRDPYKYRLR [RPL2A]
The protein stability index of the first is lower: 2.13 ± 0.093 for the first, 2.93 ± 0.098 for the second.

Compared with APPLENENSNCLLSIPK [YML103C/NUP188], APQVYIITKNENFLKEV [GAL11] is higher in protein stability index: 1.86 ± 0.058 for the first, 3.37 ± 0.24 for the second.

APSVPEFIYLTKVLQFA [SNF2] and AQAQAQAQAQVYAQQST [PGD1] are within error of each other in protein stability index: 2.82 ± 0.1 for the first, 2.87 ± 0.053 for the second.

First: AQFAGRASIEYYVGQVM [DIS3]
Second: AQFLRSVVHPGEMVGVL [RPO21]
The protein stability index of the first is higher: 3.46 ± 0.28 for the first, 2.23 ± 0.081 for the second.

First: AQGLLHLGKGTMTMDVF [RPN1]
Second: AQKNTQSYGGRPYGVGL [PRE5]
The protein stability index of the first is lower: 2.47 ± 0.065 for the first, 3.38 ± 0.084 for the second.

Going from AQKRVVSYMMPSLYRLL [SRB8] to AQLDGRIGVLQARMMQQ [NSL1], the protein stability index rises from 1.18 ± 0.11 to 2.21 ± 0.055.

First: AQPSVQSSFAGTWSAKE [FAS2]
Second: AQYEVLANYLTSALSEL [QCR2]
The protein stability index of the first is higher: 2.74 ± 0.21 for the first, 1.94 ± 0.05 for the second.

Going from ARERKTATYNDNMSEEQ [SNF2] to ARIFEFPKTTVAALRFT [RPL18A], the protein stability index falls from 3.13 ± 0.11 to 1.94 ± 0.11.

ARIKDAFITQLESSITD [YJL039C/NUP192] and ARSGLRIGRIEDVTPVP [RPS14A] are within error of each other in protein stability index: 2.83 ± 0.11 for the first, 2.69 ± 0.11 for the second.

Going from ARTATVSKKWAAAAVCE [RPL14A] to ARVILYLKNVLFAFNGV [SIN4], the protein stability index falls from 2.9 ± 0.089 to 2.38 ± 0.064.

First: ARYNWICNPVHKHREAR [RPL15B]
Second: ASDGGLYVPHSENRFPG [RPL5]
The protein stability index of the first is higher: 2.94 ± 0.083 for the first, 2.19 ± 0.1 for the second.

Going from ASINTSATVKTSDLLGS [ECM29] to ASMLGLFVFTEGWPKFQ [QCR10], the protein stability index falls from 3.24 ± 0.24 to 1.79 ± 0.1.

ASSLRFGNSLSNTVNAN [YDL088C/ASM4] and ASSSPSSTDFSTCIVSL [ECM29] are the same in protein stability index: 2.81 ± 0.068 for the first, 2.81 ± 0.081 for the second.

Going from ASTINGASIIQVIFEIF [YML103C/NUP188] to ASYSKYLIDHIKVDGAV [RPL22B], the protein stability index rises from 1.43 ± 0.059 to 2.92 ± 0.09.

Compared with ASYVNIPVIALTDLDSP [RPS0A], ATANATANATANVNASA [DSN1] is higher in protein stability index: 1.92 ± 0.063 for the first, 2.78 ± 0.043 for the second.

ATDEESVRLQRFYQLGV [CSN12] and ATESIKNRRRIHGELKT [SMC1] are within error of each other in protein stability index: 3.13 ± 0.16 for the first, 2.83 ± 0.17 for the second.

ATLKEIKSIIEQRKQKL [SMC3] and ATNRPDTLDPALLRPGR [RPT4] are within error of each other in protein stability index: 2.89 ± 0.087 for the first, 2.91 ± 0.12 for the second.

ATPPLKRFKDMEYLSGG [SMC1] gave a protein stability index of 2.93 ± 0.13.
